# Legend:
# [1] = molecular target: Microfibril-associated glycoprotein 4 (human) (UniProt P55083); assay: SPR; Ca2+; conditions: domain or fragment
# [2] = molecular target: Microfibril-associated glycoprotein 4 (human) (UniProt P55083); assay: SPR; Ca2+ form (octamer): MFAP4 or MFAP4_(C34S) amine-coupled on CM5 (Biacore X), elastogenic proteins as analytes 5-100 µg/mL in TBS/Ca2+ (2 mM CaCl2); 1:1 Langmuir fit, KD is the average over five concentrations
# Microfibril-associated glycoprotein 4 (human), sequence (P55083 22-255): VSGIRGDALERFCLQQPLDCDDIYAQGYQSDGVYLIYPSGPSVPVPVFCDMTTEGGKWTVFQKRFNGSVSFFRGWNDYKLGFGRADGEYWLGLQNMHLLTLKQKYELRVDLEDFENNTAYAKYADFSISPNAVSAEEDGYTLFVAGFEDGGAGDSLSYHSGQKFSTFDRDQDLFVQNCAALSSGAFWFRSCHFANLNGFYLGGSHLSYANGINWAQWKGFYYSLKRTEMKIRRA
Kd [1] [nM],Kd [2] [nM],Substance
16,,N-terminal half of LTBP4S
,15,"latent transforming growth factor beta binding protein-4, short isoform (natural protein)"
,1.8,recombinant N-terminal half of fibrillin-1 (domain or fragment)
